Assay results: the RNAGym collection of RNA variant scans (doi:10.7554/elife.90254)

B1: LINE1-full (parent)
chain: UACGUAGGUGGUUUUCCCCUGAUAGUGCUAAGGGGGCCUGGAAGUUUGGACUGGGCAGAGCUCAACACAGCGUGGCAAAGUGGCUGUGGCUAGACUGCCUCUCUGGAUUCCUCGUCACUCAGCAGGGCAUCUCUGAGAGAAAUGCC

Variants of: B1
Assay: self-cleavage, relative activity (ratio to wild type); higher = more cleavage; in vitro, sequencing; the parent is a self-cleaving ribozyme

Variant | self-cleavage
A43G U143C | 1.36
A43G G86U | 0.03
U112A U134G | 1.73
A79G U109G | 0.8
A6G U143A | 0.89
G7A | 1.08
C3A U96C | 0.2
U87G U115C | 0.03
U9G U130A | 0.78
A42G U85C | 0.38
U14C U23C | 1.4
A6G G55U | 0.41
G36C U47C | 0.92
A64G C131U | 0.33
G72U C145G | 0.94
A22U G60U | 0.05
U20C A57U | 0.07
A65U A67G | 0.15
U100C A138U | 1.51
U12C G35A | 1.62
A117G G137A | 1.66
U46C C101U | 2.71
C51U U115C | 1.98
U26C C95A | 0.1

Variant | self-cleavage
U81A U85A | 0.09
G122A A140U | 1.47
A50G A141G | 1
G48U G88C | 0.04
C71U A79G | 0.2
G54A G88A | 0.08
U9C G34A | 1.05
G34A G126A | 1.68
U26A G105U | 0.57
U14C U20C | 1.05
A2U U46C | 1.76
U20A C68U | 0.35
G53A U109C | 0.27
U23A U96A | 0.08
U14C A142G | 1.34
G7U U115C | 0.79
U12C U91C | 0.92
A117G U143A | 0.83
G34U A94G | 0.26
U85G A138G | 0.22
A92U G106U | 0.62
U9G C68U | 0.21
A59G A78U | 0.1
G70U A79G | 0.03

Variant | self-cleavage
C63A A77G | 0.04
A69G U96A | 0.04
C28U A64G | 0.16
A6U A136G | 1.33
U85G G106A | 0.29
U14G A42U | 0.76
A64U U134C | 0.51
U26A A140G | 1.02
U45G A136G | 0.94
U52C A107G | 1
A67G | 0.5
A77G G139A | 1.52
U46C U47A | 1.37
U14C C128U | 0.2
U15C U46C | 1.31
A77G G80U | 2.02
G11U A136U | 1.26
A67C U73C | 0.22
A42G U115A | 1.24
U12C U62C | 0.09
G32A U108C | 0.76
U29C U112C | 1.07
U29C G44C | 1.82
A67G C113U | 0.44

Variant | self-cleavage
C116A A121U | 1.21
C38U U87C | 0.06
G34U U100C | 1.5
U39A A42U | 1.35
U13G U132G | 2.18
G82C U119A | 2.14
U1A A141G | 1.43
A67G C133A | 0.41
U14C U109C | 1.25
U14C A92U | 0.89
C18U U81C | 0.84
G88A U119A | 0.06
U20C U73A | 1.56
U102C C133U | 0.47
U73C A129C | 1.36
G7U U85A | 0.13
U23G A42G | 1.46
A92U U112C | 0.48
G10A C133U | 1.31
U13C A142U | 1.09
G10C | 0.79
A141G A142C | 0.39
G33C G89U | 0.06
U13C C110U | 1.43

Variant | self-cleavage
U20A A43C | 0.84
G25A U81C | 1.91
A42G G114A | 1.48
U62C A78G | 0.05
U62C A78U | 0.04
G80C A107G | 1.52
A43G G93A | 0.1
A22G U85G | 0.45
U39A G135A | 1.57
G53A U102G | 0.68
U23A U46C | 1.57
G4C U12G | 0.93
G72A A121G | 1.02
U5C A141G | 0.92
U115C G144A | 2.69
G7U G70A | 0.2
U73C A94G | 0.37
A2C U62C | 0.11
C123G C133A | 1.46
U9G A43G | 0.85
U115A A141G | 1.5
G4A U9C | 0.69
U29G U96A | 0.06
A42U A121C | 2.42

Variant | self-cleavage
U14A | 1.01
U62A A64G | 0.05
U81C U104A | 1.07
U13C U100A | 0.7
U45A A59G | 0.05
U73A A124C | 2.02
U5C G8A | 0.24
A2G C118G | 1.04
A22G G33A | 0.65
G8C U39C | 0.91
G10U C145A | 1
U130A A142C | 0.79
U1C A64G | 0.2
C61U U134G | 0
U26G U100C | 1.22
U62A C71U | 0
A94U U134G | 0.2
U1C A117U | 0.89
A43G U100C | 1.65
A67C U108C | 0
A2G U62A | 0.09
U47G A124G | 0.56
A57G A117G | 1.41
U45C U102C | 1.55

Variant | self-cleavage
G41A U134G | 0.98
A78G A92U | 0.64
U85A A94U | 0.07
A65U U112A | 0.14
G93A A141U | 0.04
U15A U132C | 0.98
U5C C120U | 1.26
A22G G83U | 0.58
C16U A79G | 0.9
G21A U115G | 0.96
U52C U134G | 2.76
A22G A78G | 0.94
A77U A94U | 0.2
A136U A141G | 1.3
A43C U100A | 1.41
A22U U109A | 1.34
C61A A69U | 0.02
U9A G72A | 0.81
C17G U115C | 0.84
A43G A124G | 1.05
C99U A142G | 0.58
U15A A94G | 0.19
U29C U100C | 1.49
U14C U46C | 1.3

Variant | self-cleavage
U1A A43G | 0.81
A92C A124G | 0
U85C A94U | 0.14
A117G G126A | 1.96
C56A U143A | 0.09
U15C A138U | 1.86
U15C A138G | 1.49
G40U U134C | 1.6
U96A G122C | 0.07
U20G U100C | 1.06
G75A A117C | 1.31
C123G | 1.36
C116U G125C | 1.54
U108A A129G | 0.99
C51U A64U | 0.46
A24G U39A | 0.77
U13C A57U | 0.12
U12C A121G | 1.74
G55U A117U | 0.46
U104C A141G | 1.69
U85A A136U | 0.19
A57G U119C | 1.4
U73A U119A | 1.59
C71U U85A | 0.03

Variant | self-cleavage
U15C U52A | 1.35
U47G U119A | 1.32
A6G A24G | 1.21
U1C G36A | 1.06
U26A U96G | 0.03
G89A U112A | 0.05
G27A G54A | 0.59
U29A U132A | 1.09
G48A U132A | 1.38
U100A U143A | 0.91
U91A C116U | 0.53
U26G U85C | 0.14
U13C C120U | 1.05
A50C U112C | 1.36
C3U U130C | 0.31
A59G C113A | 0.07
A6U U26A | 0.87
C19U U52A | 1.28
A43U C103U | 1.09
U85A G105A | 0.04
U9C U102C | 1.3
C56U A141G | 0.14
G11A A78G | 1.38
U13C U62A | 0.12

Variant | self-cleavage
U52A C110A | 1.66
A31G G35C | 1.15
A6U A77G | 1.51
U47C A50G | 1.14
A94C A136G | 0.07
A50G G126A | 0.41
U45C A65G | 0.04
U73A A121U | 1.28
G27A A67G | 0.45
U5C A94U | 0.76
G25U | 1.45
U100C A129U | 1.92
A67U U109C | 0.04
A67U U109A | 0.11
A67G C120U | 0.45
U15C U109G | 0.84
A78U G89A | 0.07
A64G U73G | 0.15
U5C G35U | 1.19
C19A U46C | 1.22
U29C G60A | 0.02
U15C G122A | 1.66
G83U U85A | 0.07
U143G | 1.11

Variant | self-cleavage
U109A C123U | 1.34
U12G U108G | 0.82
A50G A65C | 0.1
U104C A117G | 1.23
U1C U45C | 0.91
U29C G36A | 1.63
U108C C146U | 0.63
U46C G54A | 1.21
U13G U47C | 1.17
G8U U62A | 0.12
A31G U85A | 0.11
U45C U108C | 2.11
U119A A121U | 1.67
C18U A124U | 1.27
G8C U14G | 1.39
U15C A77U | 1.39
A31U G58A | 0.05
G70A A124C | 0.21
U5A U115C | 0.5
U96C G137U | 0.06
U13A U115C | 1.56
G33A U130C | 1.04
A24G C128A | 0.65
C76U A117C | 2.66

Variant | self-cleavage
A121U A141G | 1.24
C3U A117U | 1.31
G80U A141G | 1.1
U46A A57U | 0.08
C90U A124U | 0.02
U5C A138U | 1.58
G137C | 1.3
A6G U115C | 0.7
A117C A124G | 1.7
G53U C99U | 0.13
U81A C146U | 1.56
G7A A141G | 0.69
G36A A43G | 1.07
A59U A78G | 0.68
U46A A107U | 1.36
U46A A107G | 1.43
U1G U100C | 1.1
U47C U73A | 2.06
A136U A142C | 1.43
U5C U47A | 0.92
A136G A142G | 1.47
A6U G53A | 0.9
A107G U119A | 1.91
G114C | 1.63

Variant | self-cleavage
C56U C111U | 0.19
U1C A78C | 1.46
U20C A141G | 1.54
A50U G144A | 1.37
U52C U96A | 0.1
C38U A94G | 0.29
U96A G135A | 0.03
C51U U102C | 0.41
U47C U52A | 1.72
G54U U108C | 0.36
U73A A138U | 1.72
U109C A124G | 0.78
G21A U102C | 1.79
A30C A107G | 2.06
C76A A124G | 0.92
G105U U119C | 1.92
U13A A59U | 0.44
U15C U143G | 2.03
C3A A129G | 0.88
U85A U112C | 0.04
A57U U62C | 0.05
A57G G139A | 0.75
G97U C145U | 0.04
U45C C56A | 0.06

Variant | self-cleavage
U52A U96C | 0.15
U100A A129G | 1.49
A42G U132A | 1.8
C120U A142U | 1.52
U1C A79U | 2.16
C17A U45C | 1.35
A42C A142G | 1.23
A59C A67G | 0
G97A U134G | 0.06
U39A A43G | 0.63
A65G C84G | 0.17
A31G A42G | 0.96
U15C A124G | 1.39
U81A U132A | 1.7
A79U U91A | 0.58
U96C U115A | 0.13
U12G A50G | 1.2
A2G A117U | 1
U96G A117C | 0
U14C G34U | 0.45
U13C U134A | 1.03
G72A U143C | 1.65
